Assay results taken from PMC3046868 (Nature, 2010).

Target: the molecule itself
Assay: western blot

B1: HA-tagged wild-type APCDD1 (natural protein)
chain: not shown
modifications: glycosylated
  stoichiometry N: 2
